Here are results for 1 molecule from patent US20160208003A1 (AFFITECH RESEARCH, published 2016).

The target in assay [1] is T1, human CC chemokine receptor 4 (CCR4) (human, UniProt P51679 1-360).
T1 construct: whole, on cells; Always presented on cells; also called CD194; human CCR4
T1 sequence (looked up): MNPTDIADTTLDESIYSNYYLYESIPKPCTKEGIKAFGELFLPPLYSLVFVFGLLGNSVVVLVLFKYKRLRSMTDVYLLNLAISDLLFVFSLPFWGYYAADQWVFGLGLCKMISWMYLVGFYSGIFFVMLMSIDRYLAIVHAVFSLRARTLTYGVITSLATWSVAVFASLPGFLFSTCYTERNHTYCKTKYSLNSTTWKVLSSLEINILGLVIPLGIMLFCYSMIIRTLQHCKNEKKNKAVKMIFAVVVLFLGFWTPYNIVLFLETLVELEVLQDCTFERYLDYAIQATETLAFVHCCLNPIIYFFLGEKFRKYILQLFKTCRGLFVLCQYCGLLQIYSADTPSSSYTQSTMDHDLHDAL
Nature of the assay: calculated from the IC50; CCRF-CEM cells, competitor biotinylated MDC. Here is the method:
The competition binding assays were performed with biotinylated MDC or biotinylated TARC on DT-40-CCR4+ and CCRF-CEM cells. DT40 and CCRF-CEM cells were cultured as described in Example 2. TARC and MDC were biotinylated using standard procedures. The biotinylation process causes some losses, so the concentrations of biotinylated MDC and TARC recited herein are approximate.
The cells were harvested from culture flasks, washed 2 times with PBS (400×g, 5 min, 4° C.) and resuspended in PBS containing 0.2% BSA and 0.09% NaN3. 1×10^5 cells per well were aliquoted into V-shaped 96-well plates (Greiner Bio-One, Frikenhausen, Germany). Cells were centrifuged (400×g, 5 min, 4° C.) and resuspended in 50 μl IgG, single chain or unlabeled ligand (1:10 dilution series starting on 100/500/26, 4 μg/ml) mixed with a fixed concentration of biotinylated ligand (10 or 20 nM, see legend to FIG. 24). The cells were incubated for 2 hours at 4° C. and mixed with a pipette every 45 min. The cells were washed three times with 150 μl PBS with 0.2% BSA and 0.09% NaN3 and stained with 3 μg/ml streptavidin PE (BD Biosciences) for 45 minutes at 4° C. […] Apparent binding affinities (KD) were calculated according to the following equation derived from previously described methods (Kipriyanov et al, 1997b; Schodin & Kranz, 1993): […]

The target of assay [2] is T1, human CC chemokine receptor 4 (CCR4). Nature of the assay: calculated from the IC50; DT-40-CCR4+ cells, competitor 3.3 nM biotinylated IgG 9E. Here is the method: DT40 and CCRF-CEM cells were cultivated as described in Example 2. The cells were harvested from culture flasks, washed 2 times with PBS (400×g, 5 min, 4° C.) and resuspended in PBS containing 0.2% BSA and 0.09% NaN3. 1×10^5 cells per well were aliquoted into V-shaped 96-well plates (Griner Bio-One, Frikenhausen, Germany). Cells were centrifuged (400×g, 5 min, 4° C.) and resuspended in 50 μl IgG 9E10J or KM3060var (dilution series starting at 5 μg/ml) mixed with biotinylated competitor antibody 9E (0.1 or 0.5 μg/ml). The cells were incubated for 2 hours at 4° C., mixing with a pipette every 45 min. The cells were washed three times with 150 μl PBS with 0.2% BSA and 0.09% NaN3 and stained with 3 μg/ml streptavidin PE (BD Biosciences) for 45 minutes at 4° C. Cells were washed, resuspended in 200 μl PBS with 0.2% BSA and 0.09% NaN3, and transferred to a U-shaped 96 well Costar (Corning, Schiphol-Rijik, The Netherlands) plate for flow cytometry using an FACS Canto II flow cytometer (BD Biosciences, Heidelberg, Germany).

The target is the same in assay [3]. Nature of the assay: calculated from the IC50 (KD=IC50/(1+[bio-MDC]/KD MDC)); DT-40-CCR4+ cells, competitor biotinylated MDC.
Assay [4] has the same target. Nature of the assay: cell-based or functional assay.

B1: 9E10J IgG (full length human IgG1, lambda) (antibody, V domains shown)
VH: QVQLVQSGAEVKKPGSSVKVSCKASGGTFSSYAISWVRQAPGQGLEWMGGIIPIFGTANYAQKFQGRVTMTRDTSTSTVYMELSSLRSEDTAVYYCARRGGSYFDYWGQGTLVTVSS
VL: SYVLTQPPSASGTPGQSVTISCSGSTSNIGSHYVFWYQQLPGTAPRLLIYRNHQRPSGVPDRLSGSKSGTSASLAISGLRSEDEADYYCAVWDDTLSGWVFGGGTKLTVLG
notes: also called IgG 9E10J; unmodified 9E10J
For the molecule B1, the Kd in assay [1] is 0.2 nM; in assay [2], 0.09 nM; in assay [3], 0.01 nM. Besides, in assay [4], the “ADCC of CCRF-CEM cells, EC50 (mean, N=2)” value turned out to be 8.7 ng/mL.
